Patent publication US7067618B1, “Medicinal preparations” (Kyowa Hakko Kogyo Co., Ltd., priority 1998, dated 2006)

Key:
[1] = Release of sialyllactose from insulin-sialyllactose reaction products caused by pH lowering (HPLC); assay type: physicochemical; conditions: for Proportion by HPLC, Release of Sialyllactose Caused by pH Lowering to 5.3: pH 5.3, 40° C.; for Proportion by HPLC, Release of Sialyllactose Caused by pH Lowering to 6.4: pH 6.4, 40° C.
Procedure: Bovine pancreatic insulin (0.2 mg, Wako Pure Chemical Industries, Ltd.) was dissolved in 1 mL of a 1 mmol/L aqueous solution of hydrochloric acid. To about 25 mg of sialyllactose of 75% purity (a mixture of 3′-sialyllactose and 6′-sialyllactose, Boehringer Mannheim GmbH) was added 0.1 mL of a 600 mmol/L aqueous solution of disodium hydrogenphosphate to make a solution. The insulin solution (0.1 mL) and the sialyllactose solution (0.1 mL) were mixed in a test tube to give a mixture having a pH of about 7.8. The test tube was put into a constant temperature water bath at 40° C. to cause reaction and left for 3 days. The reaction mixture was sampled intermittently, followed by centrifugation at 3000 rpm for 20 minutes to remove insoluble materials. The samples collected 0, 1 and 3 days after the start of the reaction were analyzed for products obtained by the reaction of insulin with sialyllactose by HPLC under the following conditions. • Column: YMC-Pack ODS-AP, 4.6×150 mm • Mobile phase: 20 mmol/L phosphate buffer (pH 8.0) containing 0.001% Triton X-100: acetonitrile containing 0.001% Triton X-100=411 parts by volume: 140 parts by volume • Flow rate: 1.3 mL/minute • Detection wavelength: 220 nm
(§1) Bovine pancreatic insulin (0.2 mg, Wako Pure Chemical Industries, Ltd.) was dissolved in 1 mL of a 1 mmol/L aqueous solution of hydrochloric acid. To about 25 mg of sialyllactose of 75% purity (a mixture of 3′-sialyllactose and 6′-sialyllactose, Boehringer Mannheim GmbH) was added 0.1 mL of a 600 mmol/L aqueous solution of disodium hydrogenphosphate to make a solution. The insulin solution (0.1 mL) and the sialyllactose solution (0.1 mL) were mixed in a test tube to give a solution having a pH of about 7.8. This solution was subjected to reaction at 40° C. for 3 days and then centrifuged at 3000 rpm for 20 minutes. To 40 μL of the supernatant was added 0.04 mL of a 50 mmol/L-aqueous solution of citric acid to adjust the pH to 6.4, and the resulting solution was subjected to reaction at 40° C. The reaction mixture was intermittently sampled and analyzed for products obtained by the reaction of insulin with sialyllactose by HPLC in a manner similar to that in Example 2.
as §1, with “centrifuged 1” for “centrifuged”, “100 mmol/L aqueous” for “50 mmol/L-aqueous”, “5.3,” for “6.4,”

[2] = Release of lactose from insulin-lactose reaction products caused by pH lowering (HPLC); assay type: physicochemical; conditions: for Proportion by HPLC, Release of Lactose Caused by pH Lowering to 5.0: pH 5.0, 40° C.; for Proportion by HPLC, Release of Lactose Caused by pH Lowering to 5.9: pH 5.9, 40° C.; for Proportion by HPLC, Release of Lactose Caused by pH Lowering to 6.7: pH 6.7, 40° C.
Procedure: A solution of 0.2 mg of bovine pancreatic insulin (Wako Pure Chemical Industries, Itd.) in 1 mL of a 2 mmol/L aqueous solution of hydrochloric acid, a solution of 320 mg of anhydrous β-lactose (Nacalai Tesque, Inc.) in 2 mL of distilled water, and 1 mL of a 200 mmol/L phosphate buffer (pH 8.4) were mixed in a test tube to give a mixture having a pH of about 8.1. The test tube was put into a constant temperature water bath at 40° C. to cause reaction. The reaction mixture was sampled after 0, 5 and 24 hours, and analyzed for products obtained by the reaction of insulin with lactose by high performance liquid chromatography (HPLC) under the following conditions. • Column: YMC-Pack ODS-A or YMC-Pack ODS-AM, 6.0×150 mm • Mobile phase: 100 mmol/L phosphate buffer (pH 8.0) containing 0.001% Triton X-100: acetonitrile containing 0.001% Triton X-100=25 parts by volume: 9 parts by volume • Flow rate: 1.3 mL/minute • Detection wavelength: 210 nm
(§2) A solution of 0.2 mg of bovine pancreatic insulin (Wako Pure Chemical Industries, Itd.) in 1 mL of a 2 mmol/L aqueous solution of hydrochloric acid, a solution of 320 mg of anhydrous β-lactose (Nacalai Tesque, Inc.) in 2 mL of distilled water, and 1 mL of a 200 mmol/L phosphate buffer (pH 8.4) were mixed in a test tube. The mixture was subjected to reaction at 40° C. for 24 hours. To 3 mL of the resulting solution was added 0.5 mL of a 50 mmol/L aqueous solution of citric acid to adjust the pH to 6.7, and the mixture was subjected to reaction at 40° C. The samples collected from the reaction mixture 0 and 30 minutes after the start of the reaction were analyzed for products obtained by the reaction of insulin with lactose by HPLC in a manner similar to that in Example 1.
as §2, with “100” for “50”, “5.9,” for “6.7,”, “The” for “The samples collected from the”, “was intermittently” for “0 and 30 minutes after the start of the reaction were”
as §2, with “a 150” for “a 50”, “to 5.0,” for “to 6.7,”, “The” for “The samples collected from the”, “mixture was intermittently sampled” for “mixture 0”, “and” for “and 30 minutes after the start of the reaction were”

Question: Which results are given for “Insulin: bovine pancreatic insulin (Wako Pure Chemical Industries); free insulin to which no sugar is bound”?
Answer: Proportion by HPLC, Release of Sialyllactose Caused by pH Lowering to 5.3 ([1]; 0 minute): 31%; Proportion by HPLC, Release of Sialyllactose Caused by pH Lowering to 5.3 ([1]; 10 minutes): 58%; Proportion by HPLC, Release of Sialyllactose Caused by pH Lowering to 5.3 ([1]; 30 minutes): 80%; Proportion by HPLC, Release of Sialyllactose Caused by pH Lowering to 6.4 ([1]; 0 minute): 31%; Proportion by HPLC, Release of Sialyllactose Caused by pH Lowering to 6.4 ([1]; 10 minutes): 44%; Proportion by HPLC, Release of Sialyllactose Caused by pH Lowering to 6.4 ([1]; 30 minutes): 50%; Proportion by HPLC, Release of Lactose Caused by pH Lowering to 5.0 ([2]; 0 minute): 21%; Proportion by HPLC, Release of Lactose Caused by pH Lowering to 5.0 ([2]; 2 minutes): 60%; Proportion by HPLC, Release of Lactose Caused by pH Lowering to 5.0 ([2]; 10 minutes): 83%; Proportion by HPLC, Release of Lactose Caused by pH Lowering to 5.0 ([2]; 30 minutes): 93%; Proportion by HPLC, Release of Lactose Caused by pH Lowering to 5.0 ([2]; 60 minutes): 95%; Proportion by HPLC, Release of Lactose Caused by pH Lowering to 5.9 ([2]; 0 minute): 24%; Proportion by HPLC, Release of Lactose Caused by pH Lowering to 5.9 ([2]; 2 minutes): 35%; Proportion by HPLC, Release of Lactose Caused by pH Lowering to 5.9 ([2]; 10 minutes): 59%; Proportion by HPLC, Release of Lactose Caused by pH Lowering to 5.9 ([2]; 30 minutes): 76%; Proportion by HPLC, Release of Lactose Caused by pH Lowering to 5.9 ([2]; 60 minutes): 75%; Proportion by HPLC, Release of Lactose Caused by pH Lowering to 6.7 ([2]; 0 minute): 25%; Proportion by HPLC, Release of Lactose Caused by pH Lowering to 6.7 ([2]; 30 minutes): 45%
